{"source": "paper PMC4440831", "about": "(Chembiochem : a European journal of chemical biology, 2015)", "origin": "cited, not measured here", "target": "CXCR4 receptor (Homo sapiens, UniProt P61073)", "sequence (P61073 whole entry)": "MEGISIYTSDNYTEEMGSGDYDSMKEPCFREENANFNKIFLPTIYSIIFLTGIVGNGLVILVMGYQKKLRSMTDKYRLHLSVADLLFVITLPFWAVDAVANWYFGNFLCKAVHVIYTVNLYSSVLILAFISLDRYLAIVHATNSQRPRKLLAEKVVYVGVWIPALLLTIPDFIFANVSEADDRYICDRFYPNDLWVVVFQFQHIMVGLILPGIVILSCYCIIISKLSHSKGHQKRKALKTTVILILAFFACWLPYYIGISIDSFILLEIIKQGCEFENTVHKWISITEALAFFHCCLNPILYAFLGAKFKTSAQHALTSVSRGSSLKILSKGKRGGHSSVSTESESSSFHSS", "conditions": "earlier work of the same group"}
{"substance": "MCoTI-I: empty scaffold cyclotide (SGSDGGVCPKILQRCRRDSDCPGACICRGNGYCG; not fully specified; Trypsin inhibitor 1; UniProt P82408 1-34, looked up)", "values": [{"measurement": "CXCR4 inhibitory activity, result in words", "value": "no inhibitory activity"}]}
